According to patent US20150011431A1 (Scripps Research, published 2015):

Legend:
CXCR1 [1] = molecular target: T1, CXCR1 (UniProt P25024 1-350, limits assumed); experiment: flow cytometry; fluorescence on CXCR1-U2OS cells over fluorescence on parental U2OS cells
T1 construct: whole, on cells; DiscoveRx cells engineered with a luminescent reporter enzyme for beta-arrestin recruitment; also called CXCR1-U2OS; U2OS-CXCR1
T1 sequence (looked up): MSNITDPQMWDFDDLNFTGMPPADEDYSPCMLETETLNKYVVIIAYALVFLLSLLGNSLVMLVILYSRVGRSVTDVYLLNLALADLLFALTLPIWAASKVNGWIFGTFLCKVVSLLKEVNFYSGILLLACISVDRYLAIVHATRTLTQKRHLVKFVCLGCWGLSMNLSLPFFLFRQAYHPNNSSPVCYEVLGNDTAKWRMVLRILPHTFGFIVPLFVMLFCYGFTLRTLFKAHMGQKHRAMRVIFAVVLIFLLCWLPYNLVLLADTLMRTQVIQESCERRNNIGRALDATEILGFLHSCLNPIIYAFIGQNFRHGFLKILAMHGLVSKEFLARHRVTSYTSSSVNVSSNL
Protocol: In an exemplary method, BLV1H12 IgG comprising a CDR3 with an IL-8 insert (e.g., the IL-8 sequence replaced a portion of the CDR3) was evaluated for binding to CXCR1 expressing cells by flow cytometry. Briefly, a cell line expressing functionally validated CXCR1 derived from U2OS cells was obtained from DiscoveRx and cultured per manufacturer's instructions (Cat#93-0226C3, DiscoveRx Corporation, Freemont, Calif.). The parental cell line U2OS was obtained from ATCC and cultured under the same conditions as the CXCR1 cells. Cell culture supernatants were then tested for binding to cells by flow cytometry. The adherent U2OS or CXCR1-U2OS cells were dissociated with Accutase (Innovative Cell Technologies, Inc., San Diego, Calif.), neutralized with an equal volume of media containing 10% serum, centrifuged at 1000 g, and resuspended in PBS with 2% BSA. Next, cells were dispensed into microtiter plates to achieve between 30,000 to 300,000 cells per well, centrifuged again, and resuspended in cell culture supernatant containing expressed IgG, or a dilution of IgG-containing cell culture supernatant. A fluorescent-conjugated anti-Human Fc antibody was used to detect binding of the expressed antibody to cells.
Alternatively, using the BLV1H12 light chain variable region as a guide, the human germline sequences identified with closest homology were V1-47 and V1-51.

CXCR1 [2] = molecular target: T1, CXCR1; experiment: flow cytometry with 2 ug/ml heparin sulfate, IgG normalized to 10 nM; CXCR1-U2OS against parental U2OS cells
Protocol: Cell culture supernatants were then tested for binding to cells by flow cytometry. The adherent U2OS or CXCR1-U2OS cells were dissociated with Accutase (Innovative Cell Technologies, Inc., San Diego, Calif.), neutralized with an equal volume of media containing 10% serum, centrifuged at 1000 g, and resuspended in PBS with 2% BSA. Next, cells were dispensed into microtiter plates to achieve between 30,000 to 300,000 cells per well, centrifuged again, and resuspended in cell culture supernatant containing expressed IgG, or a dilution of IgG-containing cell culture supernatant. A fluorescent-conjugated anti-Human Fc antibody was used to detect binding of the expressed antibody to cells.
In an exemplary method, variants of V1-51 were made by overlap PCR and subcloned into pFuse vector for expression as described in Example 4. […] These V1-51 variants were paired with heavy chains encoding VH4-34+CDR3-IL8 (SEQ ID NO: 430), VH4-34+CDR3-IL8_CDR1 Cow (SEQ ID NO: 432), VH4-34+CDR3-IL8_CDR2 Cow (SEQ ID NO: 433), or VH4-34+CDR3-IL8_CDR1 Cow CDR2 Cow, (SEQ ID NO: 436). Transfections and ELISA were carried out as described above, and flow cytometry was used to evaluate CXCR1 binding specificity as previously described, with the modification that cells were resuspended in 2% BSA in PBS plus 2 ug/ml Heparin sulfate, and IgGs were normalized to 10 nM during incubation on cells.

B1: IgG with VH4-34+CDR3-IL8_CDR1 Cow_CDR2 Cow and light chain V1-51 (antibody)
heavy: not shown
light: QSVLTQPPSVSAAPGQKVTISCSGSSSNIGNNYVSWYQQLPGTAPKLLIYDNNKRPSGIPDRFSGSKSGTSATLGITGLQTGDEADYYCASAEDSSSNAVFGSGTTLTVLGQPKAAPSVTLFPPSSEELQANKATLVCLISDFYPGAVTVAWKADSSPVKAGVETTTPSKQSNNKYAASSYLSLTPEQWKSHRSYSCQVTHEGSTVEKTVAPTECS
notes: IgG, human IgG1 CH1-CH2-CH3; supernatant; also called Cow / Cow / V1-51; VH4-34 CDR3-IL8 CDR1-Cow & CDR2-Cow with V1-51
In the case of B1, the “CXCR1/Parental Ratio” value (CXCR1 [1]) is reported as 3.1 and the CXCR1 specificity (CXCR1 [2]) is reported as 11.1.
